The values below come from patent publication US20180080021.

This series addresses polymerized microtubules.

B1: recombinant R293W mutant KIF3B motor domain (amino acids 1-365) with N-terminal 6x-Histidine tag (protein)
chain: MSKLKSSESVRVVVRCRPMNGKEKAASYDKVVDVDVKLGQVSVKNPKGTAHEMPKTFTFDAVYDWNAKQFELYDETFRPLVDSVLQGFNGTIFAYGQTGTGKTYTMEGIRGDPEKRGVIPNSFDHIFTHISRSQNQQYLVRASYLEIYQEEIRDLLSKDQTKRLELKERPDTGVYVKDLSSFVTKSVKEIEHVMNVGNQNRSVGATNMNEHSSRSHAIFVITIECSEVGLDGENHIRVGKLNLVDLAGSERQAKTGAQGERLKEATKINLSLSALGNVISALVDGKSTHIPYWDSKLTRLLQDSLGGNAKTVMVANVGPASYNVEETLTTLRYANRAKNIKNKPRVNEDPKDALLREFQEEIARL
Take B1: the “rate of ATP hydrolysis (kinesin ATPase end-point assay, free phosphate) with increasing amounts of microtubules” value is listed as “When compared to wild-type, the mutant motor domain displayed a significantly reduced rate of ATP hydrolysis upon incubation with various concentrations of microtubules”.
